The data set concerns the molecule itself. Briefly: cryo-EM structure; xtZnT8-Zn^2+: single-particle cryo-EM, 20 mM Tris-HCl pH 7.5, 150 mM NaCl, 5 mM beta-mercaptoethanol, 0.5 mM DDM, 1 mM ZnSO4; 3.9 A.

B1: ZnT8 from Xenopus tropicalis, xtZnT8-BRIL fusion protein (natural protein, UniProt Q5XHB4 1-374, looked up)
chain: MKGSEEAYLVSDKATKMYSLTKDSEKNHPSKPPLQDEENPQSKYHCHNNNKKAYDARQREQTFAKKKLCIASLICFVFISAEIVGGYIAGSLAVVTDAAHLLVDLSSFFISLCSLWLSSKSSTTRLTFGWHRAEILGALMSVITIWLVTGVLVYLACERLIRPDYTIDGTVMLITSACALGANLVLALILHQSGHGHSHAGGKHEHMASEYKPQTNASIRAAFIHVIGDLFQSISVLISALIIYFKPEYKMADPICTFIFSIFVLITTVTVLRDLLTVLMEGTPRGIHYSDVKQSILAVDGVKSVHSLHLWALTMNQVILSAHIATDIVGESKRILKDVTQNVFARFPFHSVTIQVEPIEDQSPECMFCYEPTQ
notes: Zinc transporter 8 (ZnT8, SLC30A8) from Xenopus tropicalis, full-length wild type, NCBI NP_001011041.1; BRIL was fused to the carboxy-end of xtZnT8 before the TEV site and His10; it is written as a carrier under tags; also called zinc transporter 8; xtZnT8-Zn^2+; not shown: BRIL (bacterial cytochrome b562RIL), C-terminal, kept
Consider B1, for which the “stoichiometry N” value amounted to 2.

The values are drawn from article doi:10.1101/2022.06.29.497979, “Cryo-EM structure of a eukaryotic zinc transporter at a low pH suggests its Zn^2+-releasing mechanism” (bioRxiv, 2022).
